Consider one protein from paper PMC2850172.

Substrate in the data set: O=c1ccn([C@@H]2O[C@H](COP(=O)(O)OP(=O)(O)O[C@H]3OC[C@@H](O)[C@H](O)[C@H]3O)[C@@H](O)[C@H]2O)c(=O)[nH]1
Description: cells, lysate or membranes. The conditions noted are these: Pichia-expressed; conditions not stated.

B1: Pichia-expressed form of XT-I (Homo sapiens) (protein)
chain: PKCDISGKEAISALSRAKSKHCRQEIGETYCRHKLGLLMPEKVTRFCPLEGKANKNVQWDEDSVEYMPANPVRIAFVLVVHGRASRQLQRMFKAIYHKDHFYYIHVDKRSNYLHRQVLQVSRQYSNVRVTPWRMATIWGGASLLSTYLQSMRDLLEMTDWPWDFFINLSAADYPIRTNDQLVAFLSRYRDMNFLKSHGRDNARFIRKQGLDRLFLECDAHMWRLGDRRIPEGIAVDGGSDWFLLNRRFVEYVTFSTDDLVTKMKQFYSYTLLPAESFFHTVLENSPHCDTMVDNNLRITNWNRKLGCKCQYKHIVDWCGCSPNDFKPQDFHRFQQTARPTFFARKFEAVVNQEIIGQLDYYLYGNYPAGTPGLRSYWENVYDEPDGIHSLSDVTLTLYHSFARLGLRRAETSLHTDGENSCRYYPMGHPASVHLYFLADRFQGFLIKHHATNLAVSKLETLETWVMPKKVFKIASPPSDFGRLQFSEVGTDWDAKERLFRNFGGLLGPMDEPVGMQKWGKGPNVTVTVIWVDPVNVIAATYDILIESTAEFTHYKPPLNLPLRPGVWTVKILHHWVPVAETKFLVAPLTFSNRQPIKPEEALKLHNGPLRNAYMEQSFQSLNPVLSLPINPAQVEQARRNAASTGTALEGWLDSLVGGMWTAMDICATGPTACPVMQTCSQTAWSSFSPDPKSELGAVKPDGRLR
On to B1, for which the Km was found to be 300 µM.

Usually Km stands for the substrate concentration at which the rate is half of its maximum.
